Legend:
Assay in all cases: cell-based or functional assay
[1] = biological target: RSV F glycoprotein of MARM v1302A/1 (strain A2 escape mutant, substitutions at aa 241/421) (respiratory syncytial virus strain A2), P03420
[2] = biological target: RSV F glycoprotein of MARM v1269 (strain A2 escape mutant, substitution at aa 389) (respiratory syncytial virus strain A2), P03420
[3] = biological target: RSV F glycoprotein of MARM v1308F (strain A2 escape mutant, substitutions at aa 241/421) (respiratory syncytial virus strain A2), P03420
[4] = biological target: RSV F glycoprotein of MARM v1302A/6 (strain A2 escape mutant, substitutions at aa 241/421) (respiratory syncytial virus strain A2), P03420

B1: human monoclonal Fab RSVF2-5 (Fab, V domains shown)
VH: LEESGGDLVQPGRSLRLSCSTSGFSFGDYPVNWFRQAPGKGLEWLGIVRSRLYGGTLQYAASVEGRFTISRDDSKSIAYLHMNSLKSEDTAVYYCGVPVANIDYWGQGTLVTVSSASTKGPSS
VL: LTQPHSVSESLGKTVTISCTRAGGRIASNYVQWYQQRPGSSPTTVIYEDNQRPFGVPDRFSGSIDTSSNSASLTISGLKTEDEADYYCQSYDSENPWVFGGGTKLTVLG
Dose for 60% plaque reduction [1]: 1.4 µg/mL | Dose for 60% plaque reduction [2]: < 0.3 µg/mL | Dose for 60% plaque reduction [3]: 1 µg/mL | Dose for 60% plaque reduction [4]: < 0.3 µg/mL

Source: US20040005324A1
